Key:
YFP-Clu (human) [1] = assay: FRET or BRET; sensitized emission FRET in co-transfected HEK293T cells, CFP donor and YFP receptor, laser confocal microscope
YFP-Clu (human) [2] = assay: FRET or BRET; receptor (acceptor) photobleaching FRET in co-transfected HEK293T cells, CFP donor and YFP receptor, bleached at 515 nm for 60 s

Substance “CFP-SelR′ (from UniProt Q9NZV6 1-116) (enzyme)” has an FRET efficiency (YFP-Clu (human) [1]) of 40% and an FRET efficiency (YFP-Clu (human) [2]) of 41.8%.

Reference: publication PMC3689823
